Data on two molecules can be found in patent US20260209387A1, “SINGLE-DOMAIN ANTIBODY FOR INHIBITION OF NEUTROPHIL ELASTASE ACTIVITY” (UNIVERSITE DE LIEGE, priority 2023, published 2026).

In series [1] the target is T1, hNE (Homo sapiens, UniProt P08246).
T1 construct: purchased Elastin Products Company (EPC)
T1 sequence (P08246 30-247): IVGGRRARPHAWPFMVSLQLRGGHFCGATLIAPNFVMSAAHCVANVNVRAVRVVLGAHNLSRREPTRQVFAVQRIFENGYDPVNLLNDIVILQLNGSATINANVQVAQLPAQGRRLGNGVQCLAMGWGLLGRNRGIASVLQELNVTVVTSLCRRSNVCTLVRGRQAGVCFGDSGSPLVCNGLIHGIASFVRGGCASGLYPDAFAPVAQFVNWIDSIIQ
Briefly: Spray-dried powder: hNE inhibition after solubilizing. The format is biochemical. To be noted: [hNE]:[ISVD] 1:1. As to the method:
Dry powders for inhalation were formulated with the NbE201 and the NbE201-PEG40. The spray dryer used was the PROCEPT's modular 4M8-Trix.
The inhibitory activity was also assessed after solubilizing the powders. The inhibitory capacity of the Nbs were assessed in an in vitro assay at a [hNE]:[ISVD] ratio of 1:1. The inhibition capacity of the solubilized powders was compared to the inhibition capacity of their respective controls (eg. untreated NbE201 or NbE201-PEG40). […] The protein concentration used to calculate the hNE: ISVD ratio was the concentration read after centrifugation.

Series [2] can be described thus: Pharmacokinetic study, intratracheal instillation, BAL content by ELISA. Type of series: in vivo, mice. The procedure:
2.5.1. Instillation of mice and collection of BAL. […] Broncho-alveolar lavages (BAL), nasal lavages (NAL), blood samples, and lungs were collected 0, 4 or 24 h after instillation. BAL and NAL were collected with 2 ml and 1 ml of Hanks' Balanced Salt Solution (HBSS) buffer respectively. Cells were discarded from BAL and NAL samples via a 5 min centrifugation at 300 g and supernatants were stored at −20° C. Lungs were collected in 0.5 ml of HBSS buffer, ground (Precellys evolution, Bertin Technologies, Montigny-le-bretonneux, France) and centrifuged at 300 g for 15 min. Supernatants were stored at −20° C. Blood was collected by intra-cardiac puncture and stored in anti-coagulant tubes (Microvette®) 500, K3 EDTA, VWR) at −20° C. All samples were treated with an anti-protease cocktail (Roche).
2.5.2. ELISA analysis. ISVD and AAT content in the BALs collected in vivo were measured by a sandwich ELISA method. An ELISA conversion pack from Meso scale Discovery (Rockville, USA) was used for ISVD analysis, according to the manufacturer instructions. Uncoated Mesoscale compatible plates were coated with an anti-histag antibody (BioLegend, San Diego, USA). ISVDs were then detected with an anti-VHH antibody (Jackson ImmunoResearch, Ely, UK) mixed with an anti-goat Sulfo-TAG labelled antibody (Meso scale Discovery) and the signal was read with an MESO QuickPlex SQ 120 MM (Meso scale Discovery). AAT content in the samples was measured by a commercial ELISA kit (Human Serpin Al DuoSet ELISA, R&D system, Mineapolis, USA) according to manufacturer instructions.
On the technique in general: An ELISA detects its analyte on a solid surface through an enzyme-linked reagent.

The target in series [3] is T2, proteolytic activity of ciliary dyskinesia patient sputum (Homo sapiens, UniProt P08246).
T2 construct: Sputa from patients with cystic fibrosis, COPD or ciliary diskenisia above 18 years old were collected; from tissue; host or cells: expectorated sputum of patients with cystic fibrosis, COPD or ciliary dyskinesia
T2 sequence (P08246 30-267): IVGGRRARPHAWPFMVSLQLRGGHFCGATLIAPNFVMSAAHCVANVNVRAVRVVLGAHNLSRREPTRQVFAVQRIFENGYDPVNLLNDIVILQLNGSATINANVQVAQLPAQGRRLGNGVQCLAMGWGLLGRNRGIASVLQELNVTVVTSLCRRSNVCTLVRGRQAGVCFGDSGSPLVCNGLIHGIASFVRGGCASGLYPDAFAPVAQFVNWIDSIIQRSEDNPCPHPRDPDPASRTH
The experiment in a line: Sputum proteolytic activity inhibition, ciliary dyskinesia sputum. Type of series: biochemical. To be noted: 10 mg sputum. The procedure:
2.2.2 Evaluation of the proteolytic activity inhibition in CF, COPD and ciliary diskenisia sputa. […] Sputa collection procedures were evaluated by the local ethic committee (comité d'Ethique Hospitalo-Facultaire des Cliniques universitaires Saint-Luc) and approved under the Belgian registration number B4032021000071.
Sputum proteolytic activity was assessed by following with a spectrophotometer the absorbance at 410 nm of suc-Ala-Ala-Pro-Val-pNA degradation, the chromogenic hNE substrate. Sputa were classified as mucoid, muco-purulent or purulent (Serisier et al., 2009, Respir Res, 10 (1): 63. doi: 10.1186/1465-9921-10-6). According to the experiment, 10 to 20 mg of sputum were weighted in a 96-well plate. ISVDs were then added to the sputum samples and pre-incubated at 37° C. during different periods of time. The hNE substrate was diluted to a concentration of 1 mM in a tris buffer (0.1M tris, 0.5M NaCl, 0.01% Sodium azide (NaN3), pH 7.5) and 50 μl of this solution were added to the wells. The substrate degradation was followed during 50 min. […] Slopes were then calculated from the regression line drawn from the absorbance measurements and were expressed as a percentage of the sputum proteolytic activity without ISVDs.

A short description of series [4]: Physical stress (nebulization, agitation, freeze/thaw): concentration by A280 nm before/after centrifugation. To be noted: for Initial concentration percentage after centrifugation: 10 000 g 10 min. The format is physicochemical. The procedure: A 0.25 mg/ml solution of NbE201, NbE201-PEG10 or NbE201-PEG40 was prepared and divided in order to apply the following conditions: control, 1 or 4 h of agitation with a magnetic bar, nebulization, 5 or 10 freeze/thaw cycles.
2.3.1 Stability towards agitation. 100 μl of a 0.25 mg/ml ISVDs solution were agitated in a 1 ml glass vial with a 2×5 mm magnetic bar (VWR, Radnor, USA) at 200 rpm during 1 or 4 hours.
2.3.2 Stability towards Nebulization. 300 μl of a 0.25 mg/ml ISVDs solution were nebulized with a MeSH nebulizer (InnoSpire Go, Phillips, Amsterdam, The Netherlands).
2.3.3 Stability towards freezing/thawing. 100 μl of a 0.25 mg/ml ISVDs solution underwent 5 or 10 freeze/thaw (F/T) cycles. Freezing was performed in a −20° C. freezer and thawing was performed at RT.
2.3.4 Concentration measurements. Concentrations and UV spectra were measured by spectrophotometry (NanoDrop 2000/2000c spectrophotometer, ThermoFisher). Concentrations were determined based on the absorbance at 280 nm. NbE201 and NbE201-Cter mass extinction coefficients applied to the measurements were 1.888 and 1.716 (mg/mL)^−1 cm^−1 respectively. Regarding the ISVDs exposed to physical stresses, the concentration was read before and after centrifugation at 10 000 g at 4° C. for 10 min.

Where [5] appears, read: hNE + Solubilized powder, with aggregates.
Where [6] appears, read: hNE + Solubilized powder, without aggregates (after centrifugation).

B1: NbE201-PEG40: NbE201-Cter conjugated via C-terminal cysteine to branched 40 kDa PEG-maleimide (conjugate)
VHH: QVQLQESGGGLVQAGGSLRLSCVVPGRTISLYRMGWFRQAPGKEREFVAGINWSGDMTDYVDSVKGRFTISRDNAKNTVYLEMNSLKPEDTAIYYCTADPKLLPLADSSYGYWGQGTQVTVSSSPSTPPTPSPSTPPC
Regarding B1, the “hNE Inhibition percentage” value came out at 70 ± 2% in series [1] (hNE + Control sdAb (untreated)), 67 ± 2% in series [1] (setting [5]) and 72 ± 1% in series [1] (setting [6]). The “percentage of the dose collected at time 0 quantified in BAL after 24 h” value in series [2] (Swiss mice) came to 65%; in series [2] (β-ENaC mice), 56%. The “inhibitory capacity in ciliary dyskinesia sputum” value in series [3] is listed as “No apparent differences in inhibitory capacity”. For the same molecule, the “Initial concentration percentage before centrifugation” value in series [4] (Agitation (1 h)) was 99 ± 1%; in series [4] (Agitation (4 h)), 98 ± 1%; in series [4] (Control), 100 ± 0%; in series [4] (F/T 5x) it was 97 ± 2%; in series [4] (F/T 10x), 97 ± 2%; in series [4] (Nebulization), 88 ± 3% (****). The “Initial concentration percentage after centrifugation” value in series [4] (Agitation (1 h)) is 98 ± 1%; in series [4] (Agitation (4 h)) it was 99 ± 1%; in series [4] (Control), 99 ± 1%; in series [4] (F/T 5x), 99 ± 1%; in series [4] (F/T 10x), 97 ± 3%; in series [4] (Nebulization) it was 88 ± 3% (****).

B2: NbE201: anti-hNE ISVD (VHH/nanobody) from immunized lama, amino acid sequence SEQ ID NO: 4 (protein)
VHH: QVQLQESGGGLVQAGGSLRLSCVVPGRTISLYRMGWFRQAPGKEREFVAGINWSGDMTDYVDSVKGRFTISRDNAKNTVYLEMNSLKPEDTAIYYCTADPKLLPLADSSYGYWGQGTQVTVSS
Turning to B2, the results for the “hNE Inhibition percentage” value in series [1] (hNE + Control sdAb (untreated)), in series [1] (setting [5]) and in series [1] (setting [6]) were 76 ± 1%, 48 ± 5% and 78 ± 2%, respectively. Further, the “percentage of the dose collected at time 0 quantified in BAL after 24 h” value in series [2] (Swiss mice) amounted to 4.4%; in series [2] (β-ENaC mice), 3.3%. Further, the “inhibitory capacity in ciliary dyskinesia sputum” value in series [3] was “No apparent differences in inhibitory capacity”. Moreover, the “Initial concentration percentage before centrifugation” value is on record as 93 ± 4% in series [4] (Agitation (1 h)); 77 ± 6% (**) in series [4] (Agitation (4 h)); 100 ± 0% in series [4] (Control); 96 ± 8% in series [4] (F/T 5x); 103 ± 5% in series [4] (F/T 10x); 73% ± 3% (***) in series [4] (Nebulization). In addition, the “Initial concentration percentage after centrifugation” value in series [4] (Agitation (1 h)) was 54 ± 12% (****); in series [4] (Agitation (4 h)), 27 ± 19% (****); in series [4] (Control) it was 100 ± 0% ^; in series [4] (F/T 5x), 85 ± 10% (*); in series [4] (F/T 10x) it was 75 ± 9% (**); in series [4] (Nebulization) it was 31 ± 2% (****).
